The text below walks through data of patent publication CN115558029A (LILING BIOLOGICAL PHARMACEUTICAL SUZHOU CO LTD, dated 2023).

Experiment [1] has as its target T1, 人PD-1蛋白(北京百普赛斯，货号PD1-H5221) (human, UniProt Q15116 25-167).
T1 construct: Bought recombinant protein coated on the ELISA plate; also called PD-1抗原
The experiment is described as follows: binding ELISA on coated PD-1 protein. A general note: In an ELISA, binding on a coated surface is turned into a signal by an enzyme label.

Experiment [2] addresses PD-1 on Jurkat/PD-1细胞(Promega) (UniProt Q15116 25-288, limits assumed). The experiment is described as follows: cell-based or functional assay.

B1: 抗PD-1/PSCK9-2 (bispecific antibody, human IgG4 S228P, kappa)
heavy: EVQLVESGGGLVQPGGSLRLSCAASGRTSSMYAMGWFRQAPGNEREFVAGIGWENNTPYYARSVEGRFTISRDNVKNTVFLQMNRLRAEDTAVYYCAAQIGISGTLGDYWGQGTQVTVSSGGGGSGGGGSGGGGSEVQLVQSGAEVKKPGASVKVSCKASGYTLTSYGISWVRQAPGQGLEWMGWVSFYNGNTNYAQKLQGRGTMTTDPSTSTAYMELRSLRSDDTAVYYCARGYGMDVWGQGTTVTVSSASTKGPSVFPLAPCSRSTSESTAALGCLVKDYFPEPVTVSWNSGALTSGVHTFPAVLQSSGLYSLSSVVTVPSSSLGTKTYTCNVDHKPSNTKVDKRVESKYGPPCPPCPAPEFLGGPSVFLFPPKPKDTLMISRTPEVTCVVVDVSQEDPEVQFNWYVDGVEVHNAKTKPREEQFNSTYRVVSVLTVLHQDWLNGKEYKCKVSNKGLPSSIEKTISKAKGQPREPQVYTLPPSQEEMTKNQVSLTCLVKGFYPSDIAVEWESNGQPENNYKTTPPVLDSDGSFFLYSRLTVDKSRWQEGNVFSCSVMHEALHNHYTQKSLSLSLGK
light: ESALTQPASVSGSPGQSITISCTGTSSDVGGYNSVSWYQQHPGKAPKLMIYEVSNRPSGVSNRFSGSKSGNTASLTISGLQAEDEADYYCNSYTSTSMVFGGGTKLTVLRTVAAPSVFIFPPSDEQLKSGTASVVCLLNNFYPREAKVQWKVDNALQSGNSQESVTEQDSKDSTYSLSSTLTLSKADYEKHKVYACEVTHQGLSSPVTKSFNRGEC
notes: also called antiPD-1/PSCK9-2; 抗PD-1/PCSK9-2
What is called EC50 is the concentration that produces a half-maximal response. The low end stands for a more potent agent, the high end for a less potent agent. B1 yielded an EC50 in experiment [1] of 0.0641 µg/mL. Besides, the “EC50, PD-1报告基因法” value in experiment [2] worked out at 4 µg/mL.

B2: 抗PD-1/IL-8-2 (bispecific antibody, human IgG4 S228P, kappa)
heavy: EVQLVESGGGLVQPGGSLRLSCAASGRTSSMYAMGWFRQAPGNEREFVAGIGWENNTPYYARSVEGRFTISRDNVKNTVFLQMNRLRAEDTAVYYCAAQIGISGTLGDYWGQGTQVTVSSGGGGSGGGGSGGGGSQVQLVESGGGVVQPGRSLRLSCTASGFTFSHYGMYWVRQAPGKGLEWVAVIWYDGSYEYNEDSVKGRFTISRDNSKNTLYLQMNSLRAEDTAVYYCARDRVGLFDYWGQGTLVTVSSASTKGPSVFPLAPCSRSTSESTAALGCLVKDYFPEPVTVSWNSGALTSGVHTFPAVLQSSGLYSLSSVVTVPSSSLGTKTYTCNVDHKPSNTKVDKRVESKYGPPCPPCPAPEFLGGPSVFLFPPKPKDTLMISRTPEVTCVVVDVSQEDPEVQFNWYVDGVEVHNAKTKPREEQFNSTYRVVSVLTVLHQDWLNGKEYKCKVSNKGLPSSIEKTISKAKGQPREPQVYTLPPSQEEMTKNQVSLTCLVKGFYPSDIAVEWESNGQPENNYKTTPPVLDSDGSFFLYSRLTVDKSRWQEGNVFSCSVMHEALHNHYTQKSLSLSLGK
light: EIVLTQSPGTLSLSPGERATLSCRASQSISSSYLAWYQQKPGQAPRLLIYGPSSRATGIPDRFSGSGSGTDFTLTISRLEPEDFAVYYCQQYAGSLTFGPGTKVDIKRTVAAPSVFIFPPSDEQLKSGTASVVCLLNNFYPREAKVQWKVDNALQSGNSQESVTEQDSKDSTYSLSSTLTLSKADYEKHKVYACEVTHQGLSSPVTKSFNRGEC
In the case of B2, in experiment [2], the “EC50, PD-1报告基因法” value amounted to 1.3 µg/mL.

B3: 抗PD-1/IL-8-1 (bispecific antibody, human IgG4 S228P, kappa)
heavy: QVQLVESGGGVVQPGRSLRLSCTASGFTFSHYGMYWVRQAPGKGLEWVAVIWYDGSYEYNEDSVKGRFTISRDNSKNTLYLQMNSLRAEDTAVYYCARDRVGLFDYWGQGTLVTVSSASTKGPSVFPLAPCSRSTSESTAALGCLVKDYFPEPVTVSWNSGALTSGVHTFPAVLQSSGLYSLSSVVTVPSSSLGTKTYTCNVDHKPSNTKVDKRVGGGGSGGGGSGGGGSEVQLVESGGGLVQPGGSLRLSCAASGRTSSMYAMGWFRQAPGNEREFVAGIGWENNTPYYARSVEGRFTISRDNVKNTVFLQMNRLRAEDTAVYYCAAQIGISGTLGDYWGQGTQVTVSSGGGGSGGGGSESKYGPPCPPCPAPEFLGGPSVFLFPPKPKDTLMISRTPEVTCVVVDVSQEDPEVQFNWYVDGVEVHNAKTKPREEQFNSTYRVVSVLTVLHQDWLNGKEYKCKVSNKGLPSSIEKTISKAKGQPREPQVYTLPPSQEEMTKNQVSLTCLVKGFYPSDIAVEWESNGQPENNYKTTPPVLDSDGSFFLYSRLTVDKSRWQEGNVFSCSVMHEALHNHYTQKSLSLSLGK
light: EIVLTQSPGTLSLSPGERATLSCRASQSISSSYLAWYQQKPGQAPRLLIYGPSSRATGIPDRFSGSGSGTDFTLTISRLEPEDFAVYYCQQYAGSLTFGPGTKVDIKRTVAAPSVFIFPPSDEQLKSGTASVVCLLNNFYPREAKVQWKVDNALQSGNSQESVTEQDSKDSTYSLSSTLTLSKADYEKHKVYACEVTHQGLSSPVTKSFNRGEC
notes: also called antiPD-1/IL-8-1
On to B3, for which the binding result in experiment [1] is listed as “binds”.

B4: 抗PD-1/TGF-β-1 (bispecific antibody, human IgG4 S228P, kappa)
heavy: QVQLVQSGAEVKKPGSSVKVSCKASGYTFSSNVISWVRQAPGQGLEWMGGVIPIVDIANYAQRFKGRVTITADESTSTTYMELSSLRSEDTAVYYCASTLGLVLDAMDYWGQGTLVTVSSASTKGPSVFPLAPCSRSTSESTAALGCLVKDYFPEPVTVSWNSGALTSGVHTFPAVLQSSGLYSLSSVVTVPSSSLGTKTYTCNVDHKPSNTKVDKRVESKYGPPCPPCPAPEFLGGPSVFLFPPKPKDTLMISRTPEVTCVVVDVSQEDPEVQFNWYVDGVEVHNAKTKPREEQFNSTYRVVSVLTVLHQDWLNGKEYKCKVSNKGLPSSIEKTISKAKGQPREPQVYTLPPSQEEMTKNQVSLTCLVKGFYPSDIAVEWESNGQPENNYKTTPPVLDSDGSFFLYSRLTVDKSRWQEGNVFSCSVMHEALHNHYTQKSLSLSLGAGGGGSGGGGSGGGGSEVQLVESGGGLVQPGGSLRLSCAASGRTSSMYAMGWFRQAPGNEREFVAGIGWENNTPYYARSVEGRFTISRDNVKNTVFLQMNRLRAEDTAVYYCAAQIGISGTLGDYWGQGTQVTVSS
light: ETVLTQSPGTLSLSPGERATLSCRASQSLGSSYLAWYQQKPGQAPRLLIYGASSRAPGIPDRFSGSGSGTDFTLTISRLEPEDFAVYYCQQYADSPITFGQGTRLEIKRTVAAPSVFIFPPSDEQLKSGTASVVCLLNNFYPREAKVQWKVDNALQSGNSQESVTEQDSKDSTYSLSSTLTLSKADYEKHKVYACEVTHQGLSSPVTKSFNRGEC
notes: also called antiPD-1/TGF-β-1
The molecule B4 registered a half-maximal effective concentration (EC50) in experiment [1] of 0.17 µg/mL. In addition, the “EC50, PD-1报告基因法” value in experiment [2] came to 1.7 µg/mL.

B5: 抗PD-1/TGF-β-3 (bispecific antibody, human IgG4 S228P, kappa)
heavy: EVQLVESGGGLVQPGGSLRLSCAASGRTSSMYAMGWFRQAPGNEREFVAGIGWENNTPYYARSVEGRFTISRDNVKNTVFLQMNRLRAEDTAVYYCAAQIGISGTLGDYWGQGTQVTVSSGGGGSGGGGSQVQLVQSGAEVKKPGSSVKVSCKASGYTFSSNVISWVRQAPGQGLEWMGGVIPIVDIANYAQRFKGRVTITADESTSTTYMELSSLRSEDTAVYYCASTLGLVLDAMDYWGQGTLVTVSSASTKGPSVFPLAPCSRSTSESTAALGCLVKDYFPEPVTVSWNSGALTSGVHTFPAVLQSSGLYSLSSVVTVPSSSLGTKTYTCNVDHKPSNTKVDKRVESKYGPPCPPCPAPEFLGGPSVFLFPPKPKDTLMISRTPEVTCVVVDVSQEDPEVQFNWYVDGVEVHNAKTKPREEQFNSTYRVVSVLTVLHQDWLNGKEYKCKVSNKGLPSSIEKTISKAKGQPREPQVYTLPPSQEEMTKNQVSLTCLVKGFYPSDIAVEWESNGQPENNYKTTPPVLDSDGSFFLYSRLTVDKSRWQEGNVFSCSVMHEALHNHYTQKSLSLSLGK
light: ETVLTQSPGTLSLSPGERATLSCRASQSLGSSYLAWYQQKPGQAPRLLIYGASSRAPGIPDRFSGSGSGTDFTLTISRLEPEDFAVYYCQQYADSPITFGQGTRLEIKRTVAAPSVFIFPPSDEQLKSGTASVVCLLNNFYPREAKVQWKVDNALQSGNSQESVTEQDSKDSTYSLSSTLTLSKADYEKHKVYACEVTHQGLSSPVTKSFNRGEC
notes: also called antiPD-1/TGF-β-3
For B5, in experiment [1], the binding result was “binds”.

B6: 抗PD-1/TGF-β-2 (bispecific antibody, human IgG4 S228P, kappa)
heavy: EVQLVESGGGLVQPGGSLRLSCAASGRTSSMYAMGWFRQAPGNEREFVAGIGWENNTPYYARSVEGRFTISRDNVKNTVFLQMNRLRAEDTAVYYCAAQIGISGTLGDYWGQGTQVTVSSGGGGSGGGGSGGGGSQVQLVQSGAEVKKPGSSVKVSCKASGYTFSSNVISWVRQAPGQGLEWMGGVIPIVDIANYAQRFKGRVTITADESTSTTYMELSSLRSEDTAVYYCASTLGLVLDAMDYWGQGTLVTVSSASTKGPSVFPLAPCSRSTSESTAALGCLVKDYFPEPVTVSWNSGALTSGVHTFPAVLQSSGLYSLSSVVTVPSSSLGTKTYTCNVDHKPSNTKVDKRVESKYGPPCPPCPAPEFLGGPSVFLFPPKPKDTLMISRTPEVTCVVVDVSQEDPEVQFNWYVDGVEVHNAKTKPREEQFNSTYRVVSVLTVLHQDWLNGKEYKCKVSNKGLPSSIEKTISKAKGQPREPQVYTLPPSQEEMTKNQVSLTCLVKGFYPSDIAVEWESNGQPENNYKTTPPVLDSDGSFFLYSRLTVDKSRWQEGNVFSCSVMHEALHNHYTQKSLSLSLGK
light: ETVLTQSPGTLSLSPGERATLSCRASQSLGSSYLAWYQQKPGQAPRLLIYGASSRAPGIPDRFSGSGSGTDFTLTISRLEPEDFAVYYCQQYADSPITFGQGTRLEIKRTVAAPSVFIFPPSDEQLKSGTASVVCLLNNFYPREAKVQWKVDNALQSGNSQESVTEQDSKDSTYSLSSTLTLSKADYEKHKVYACEVTHQGLSSPVTKSFNRGEC
notes: also called antiPD-1/TGF-β-2
B6: the binding result in experiment [1] is on record as “binds”.
